According to patent US20180282403A1, “AGENTS FOR REDUCING THE ACTIVITY OF GDF15” (GENAGON THERAPEUTICS AB, priority 2015, published 2018):

Target: T1, GDF15 (Homo sapiens, UniProt Q99988)
T1 construct: purchased Abcam
T1 sequence (Q99988 197-308 limits assumed): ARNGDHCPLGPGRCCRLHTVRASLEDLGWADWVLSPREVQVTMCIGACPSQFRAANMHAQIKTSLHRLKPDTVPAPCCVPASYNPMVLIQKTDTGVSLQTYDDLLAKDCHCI
Assay: Pepstar peptide array: GDF15 binding to 15-mers of extracellular loop2 (ECD3) of QRFPR
Settings: amino acid walk and alanine scan of 15-mers; FIG. 12
From the text: In order to determine the key amino acids and a minimal epitope present in the third extracellular domain of QRFPR (extracellular loop 2) we designed a Pepstar peptide array, purchased from JPT peptides. In short the array included complete coverage of the extracellular loop2 of QRFPR, divided into 15-mers. Peptides of this length (15-mers) were selected based on recommended length by the manufacturer, based on factors such as efficiency of synthesis, purity and yield by FMOC chemistry. The 15-mers were either varied according to amino acid walk, single or double alanine scan. Each set was analysed in triplicates. GDF15 was diluted into PBS-T (0.05% Tween-20) and incubated under mild agitation on an orbital shaker overnight at +4 C. Washes was done under agitation on a Sky line orbital shaker DOS-10L, ELMI.
Primary antibodies against GDF15 were added to wells with prior GDF15 incubation and to adjacent control wells where GDF15 had been omitted (only PBS-T) and incubated for 1 hr RT under agitation on orbital shaker. After repeated washes fluorophore-conjugated secondary antibodies were added, and after final washes the array was analysed on a G2502 Microarray scanner, Agilent Technologies. Fluorescence values from technical controls and control wells (no GDF15) were subtracted and resulting values in triplicate was analysed in Excel and Prism.

- GDF15 binding to immobilised QRFPR ECD3 peptides: essential for GDF15 binding
Sequence: FLYEKEHIC (listed as Homo sapiens) [SEQ ID NO:11]
